# Results as given in the DeepSol protein solubility set.
# Assay: soluble on expression in E. coli; label from the status in PepcDB or PDB records
row,Sequence,soluble on expression in E. coli
1,SETPEVPVGSLIDFGPEAPTSSPLEAPPPVLQDGDGSLGDGASESETTESADSENDMGESPSHPSWDQDRRSSSNESFSSNQSTESTQDEETLALRDFMRGYVEKIFSGGEDLDQEEKAKFGEYCSSENGKGREWFARYVSAQRCNSKCVSEATFYRLVQSFAVVLFECHQMDDFGPAKNLMTMCFTYYHIGKPQLLPPESREKPAGSIDSYLKSANSWLAEKKDIAERLLKNTSARTENVKGFFGGLETKLKGPLARRNEEDENKPQEKRPRAVTAYSPEDEKKGEKIYLYTHLKQQPIW,soluble
2,SFFMGEKTFYHIKKENLILKARMFGKITSLGISGFVMQGTNCLVQIVCNKMLFMYGGDMYVGIMTVINSVREILSVPGSTLGSGAQPVLGYNYGAKQYERVRKA,not soluble
3,SFFTCGPNEAMVVSGFCRSPPVMVAGGRVFVLPCIQQIQRISLNTLTLNVKSEKVYTRHGVPISVTGIAQVKIQGQNKEMLAAACQMFLGKTEAEIAHIALETLEGHQRAIMAHMTVEEIYKDRQKFSEQVFKVASSDLVNMGISVVSYTLKDIHDDQDYLHSLGKARTAQVQKDARIGEAEAKRDAGIREAKAKQEKVSAQYLSEIEMAKAQRDYELKKAAYDIEVNTRRAQADLAYQLQVAKTKQQIEEQRVQVQVVERAQQVAVQEQEIARREKELEARVRKPAEAERYKLERLAEAEKSQLIMQAEAEAASVRMRGEAEAFAIGARARAEAEQMAKKAEAFQLYQEAAQLDMLLEKLPQVAEEISGPLTSANKITLVSSGSGTMGAAKVTGEVLDILTRLPESVERLTGVSISQVNHKPLRTA,not soluble
4,SFRDCAEVFKSGHTTNGIYTLTFPNSTEEIKAYCDMEAGGGGWTIIQRREDGSVDFQRTWKEYKVGFGNPSGEYWLGNEFVSQLTNQQRYVLKIHLKDWEGNEAYSLYEHFYLSSEELNYRIHLKGLTGTAGKISSISQPGNDFSTKDGDNDKCICKCSQMLTGGWWFDACGPSNLNGMYYPQRQNTNKANGIKWAAWKGSGYSLKATTMMIRPADF,soluble
5,SFTSMLSVNQAVSAERKLIDHLIIYIEHEAQRLEDIKRFFSRVTSLHDGIYNEPSDPIANPIAAFKLVKRLKSEWLNVVHSTEAEENIKVLREDYRRMESSLPKLEDLRGAAHGLMRLQDVYNLHVESLVRGHFQQISDPVDFYKLSVSDMLSGDDCFLVGKVAYDLEDYYHSVLWFEEAVRLFRGTEWSPENEGTLEDALDHLAFSHFKVCH,not soluble
6,SGAAAAEADRTLFVGNLETKVTEELLFELFHQAGPVIKVKIPKDKDGKPKQFAFVNFKHEVSVPYAMNLLNGIRLYGRPIKIQFRSGSSHAPQDVSLSYPQHHVGNSSPTSTSPSRYERTMDNMTSSAQIIQRSFSSPENFQRQAVMNSALRQMSYGGKFGSSPLDQSGFSPSVQSHSHSFNQSSSSQWRQGTPSSQRKVRMNSYPYLADRHYSREQRYTDHGSDHHYRGKRDDFFYEDRNHDDWSHDYDNRRDSSRDGKWRSSRH,soluble
7,SHMAGLEVLFASAAPAITCRQDALVCFLHWEVVTHGYCGLGVGDQPGPNDKKSELLPAGWNNNKDLYVLRYEYKDGSRKLLVKAITVESSMILNVLEYGSQQVADLTLNLDDYIDAEHLGDFHRTYKNSEELRSRIVSGIITPIHEQWEKANV,soluble
8,SHMALRIIPCLDIDGGAKVVVKGVNFQGIREVGDPVEMAVRYEEEGADEIAILDITAAPEGRATFIDSVKRVAEAVSIPVLVGGGVRSLEDATTLFRAGADKVSVNTAAVRNPQLVALLAREFGSQSTVVAIDAKWNGEYYEVYVKGGREATGLDAVKWAKEVEELGAGEILLTSIDRDGTGLGYDVELIRRVADSVRIPVIASGGAGRVEHFYEAAAAGADAVLAASLFHFRVLSIAQVKRYLKERGVEVRI,soluble
9,SIAILVIMHGESTASSMVNVANTLLDCNHAVAINMGLEDRVQDILVQAVEIANKIDKGKGILILTDMGSILTFAKVIRDATGKEVKAIDMVSTPIVIEATRKALTPEMTLEKLYFNIIESIKKHYGDMEVTYAEKDNGGRY,not soluble
10,SISTARVPADKPVRIAFSLNDASDDTPPEDSIPLVFPELDQQLQPLPPCHDSEESMEVFKQHCQIAEEYHEVKKEITLLEQRKKELIAKLDQAEKEKVDAAELVREFEALTEENRTLRLAQSQCVEQLEKLRIQYQKRQGSS,soluble
11,SKDFTWEVGYNITWNDSKITKLTTTFNPDYQGIDAGTNQKHQVGEMPGTFYLYQQVYDENGKPIQNAFVDRNNDGQITEADRYLTHKSPMAKVYMGFSSQFSYKKWDLGFNLRANFGNYVYNGVASGNSTSNNYGGKGFVTNLYNGFQDTGFTLLNTSEQMASDYFLENASFLKMDNITLGYSFQNLFAAKLSGRISASVQNVFTISKYSGLDPECGAIDSNIWPRPRTYTIGLNLNF,not soluble
12,SKLPKGTRSSVYFAQHPEKEPLPSRQEVKQTPVIMAKIKGPGPAKYLRPSCTGYIDHDISMFKAPAYTLHSRHSEKRMVCHSSPGPCYLLDPKITRFGMSSCPQVPMEERISNLRLNPTLASCQYYFEKIHPPGERRAPQYTFGYRRPYRVMDLNPAPNQYQMPLLLGPNTPVSRAAPCYSLASRDKNWFYKEDVAGGPGPTTYARPEPSIYQNRSPTYSMAKRFAYPLDLTPRPGPGSHEVQQVTVHKPHIPAFTMGIKHSLHLCPLVIDIRD,not soluble
13,SKNEKEQLSKAKASVSSLNKVIQTKLTVGNLGLGLVVIQNGPYLQISHLINKGAAASDGILQPGDVLISVGHANVLGYTLREFLKLLQNITIGTVLQIKAYRGFLEIPQEWQD,soluble
14,SKQESAAPNTPPTSQSPTPSAQFPRNDGDPQALWIFGYGSLVWRPDFAYSDSRVGFVRGYSRRFWQGDTFHRGSDKMPGRVVTLLEDHEGCTWGVAYQVQGEQVSKALKYLNVREAVLGGYDTKEVTFYPQDAPDQPLKALAYVATPQNPGYLGPAPEEAIATQILACRGFSGHNLEYLLRLADFMQLCGPQAQDEHLAAIVDAVGTMLPCFCPTEQALALV,soluble
15,SLAHIVTLNTPLREDWLAQLADVVTNPDELLHLLQIEADENLRAGQDARRLFALRVPRAFIARMEKGNPDDPLLRQVLTSRDEFIVAPGFSTDPLEEQHSVVPGLLHKYQNRALLLVKGGCAVNCRYCFRRHFPYAENQGNKRNWTVALEYIAAHPELDEIIFSGGDPLMAKDHELDWLLTQLEAIKHVKRLRIHSRLPIVIPARITDELVARFDQSRLQILLVNHINHANEVDEAFGLAMKKLRHVGVTLLNQSVLLRGVNDNARTLANLSNALFDAGVMPYYLHVLDKVQGAAHFMVTDDEARQIMRELLTLVSGYMVPRLAREIGGEPSKTPLDLQLRQC,not soluble
16,SLAHVGTWDWDITNETLAWTDETYRIFGVKPQEFKATYEAFLFYIHADDRQAVIDAVNDAINNDSSYSIKHRVIRPSGEIREVLEKGQVLRDENGKASRIIGAVLDIT,not soluble
17,SLDAEKQLANITMGLPLSPAADSARSARHALSLIATARPPAFITTIAKEVHRHTALAANTQSQQSIHTTTLARAKGEILRVIEILIEKMPTDVVDLLVEVMDIIMYCLEGSLVKKKGLQECFPAICRFYMVSYYERSHRIAVGARHGSVALYDIRTGKCQTIHGHKGPITAVSFAPDGRYLATYSNTDSHISFWQMNTSLLGSIGMLNSAPQLRCIKTYQVPPVQPASPGSHNALKLARLIWTSNRNVILMAHDGKEHRFMV,soluble
18,SLDLNDTYSGKREPFSGDHSADGFEVTSRSEMSSGSEISPVSEMPSSSEPSSGADYDYSEEYDNEPQIPGYIVDDSVRVEQVVKPPQNKTESENTSDKPKRKKKGGKNGKNRRNRKKKNPCNAEFQNFCIHGECKYIEHLEAVTCKCQQEYFGERCGEKSMKTHSMIDSSEG,not soluble
19,SLEGQLEAGEPKEGTHPEDPCPGAGAAMEKTPAAAEVPREDGNAEEMPSLQQQITSLHQELGRQQSLWADIHRKLQSHMDALRKQNRELREELRGLQRQQWEAGKKPAASPHAGRESHTLALEPAFGKISPLSADEETTPKYAGRKSQSATLLGQRWSSNHLAPPKPMSLKTERINSGKTPPQEDREKSPPGRRQDRSPAPTGRPTPGAERREVSEDGKIMHPSSRSPQNSGGRKSPVQASQATTLQEQTAAARGADRSSSVLGSSEGGFLSRVQADEFASSSPDSAERQNLPVNPPSSLEIAQAMDTKMKKEEVQEEKRHPKGKADDCRRSGFPSEFPGALHAAPSRQDMGP,soluble
